Experimental data reported in publication PMC3069016 (Molecular Biology of the Cell, 2011).

Biological target: T1, Csn10-CBP-A2 (S. cerevisiae, UniProt Q12348 1-645)
T1 sequence (looked up): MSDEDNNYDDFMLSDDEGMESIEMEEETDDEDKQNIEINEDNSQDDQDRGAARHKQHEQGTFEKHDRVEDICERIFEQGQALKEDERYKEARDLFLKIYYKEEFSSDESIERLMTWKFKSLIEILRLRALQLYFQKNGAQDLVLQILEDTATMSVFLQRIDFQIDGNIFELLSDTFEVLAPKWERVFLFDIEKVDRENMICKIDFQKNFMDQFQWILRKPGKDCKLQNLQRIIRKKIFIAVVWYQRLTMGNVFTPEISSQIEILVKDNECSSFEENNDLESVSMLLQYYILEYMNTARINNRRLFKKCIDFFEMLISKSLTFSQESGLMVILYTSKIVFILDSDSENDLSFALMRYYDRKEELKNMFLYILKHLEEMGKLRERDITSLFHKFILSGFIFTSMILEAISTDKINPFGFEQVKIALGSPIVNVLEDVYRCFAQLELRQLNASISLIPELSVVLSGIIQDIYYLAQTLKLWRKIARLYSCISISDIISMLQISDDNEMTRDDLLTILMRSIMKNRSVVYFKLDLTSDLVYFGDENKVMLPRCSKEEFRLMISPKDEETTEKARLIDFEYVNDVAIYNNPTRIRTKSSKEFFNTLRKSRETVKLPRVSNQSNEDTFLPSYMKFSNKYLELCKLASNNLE
Test: affinity purification with mass spectrometry

stoichiometry N: 1
B1: Rpn5 (natural protein, S. cerevisiae, UniProt Q12250 1-445, looked up)
chain: MSRDAPIKADKDYSQILKEEFPKIDSLAQNDCNSALDQLLVLEKKTRQASDLASSKEVLAKIVDLLASRNKWDDLNEQLTLLSKKHGQLKLSIQYMIQKVMEYLKSSKSLDLNTRISVIETIRVVTENKIFVEVERARVTKDLVEIKKEEGKIDEAADILCELQVETYGSMEMSEKIQFILEQMELSILKGDYSQATVLSRKILKKTFKNPKYESLKLEYYNLLVKISLHKREYLEVAQYLQEIYQTDAIKSDEAKWKPVLSHIVYFLVLSPYGNLQNDLIHKIQNDNNLKKLESQESLVKLFTTNELMRWPIVQKTYEPVLNEDDLAFGGEANKHHWEDLQKRVIEHNLRVISEYYSRITLLRLNELLDLTESQTETYISDLVNQGIIYAKVNRPAKIVNFEKPKNSSQLLNEWSHNVDELLEHIETIGHLITKEEIMHGLQAK
